Test results taken from the supplement of paper PMC9170038.

Test system: MS2 coat protein
Experiment: apparent KD of MS2 coat protein; designed switch direction (-1 OFF switch, 1 ON switch): -1; higher = weaker reporter binding
How it was run: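 Each step of the titration lasted 0.8–1.5 h at the lowest concentration and 10–20 min at the highest. The protein, SNAP-549-labelled MS2 coat protein, went from 0.7 or 1.5 nM doubling to 3 µM over RNA switches transcribed on Illumina chips by stalled E. coli RNA polymerase. Normalised cluster fluorescence was curve-fitted, and the per-design median over clusters is given as apparent KD.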

[1] = Eterna round: R95, input ligand: FMN 200 uM
[2] = Eterna round: R95, input ligand: microRNA oligo, concentration not stated
[3] = Eterna round: R95, input ligand: none
[4] = input ligand: microRNA oligo, concentration not stated

Sequence: GUGGUGACAGGAUAUACAUGAGGAUCACCCAUGUGAGGAGGAGGAGAGAGGUGAAGGAGUAGAAGGGUCAGAGA [JR_Exclu3_Sub025] (puzzle: Exclusion 3)
- apparent KD of MS2 coat protein [1]: 102 nM
- apparent KD of MS2 coat protein [2]: 91.5 nM
- apparent KD of MS2 coat protein [3]: 106 nM

Sequence: GUGGUUCCUGUCAGGAUAUACGCGGACCACCACCUGUAGAAGGGACAUGAGGAUCACCCAUGUUUUCCAAAGCG [Eternabot (L2) Solution 80] (Eterna round: R97, puzzle: Brourd's mod of Exclusion 4)
- apparent KD of MS2 coat protein (input ligand: FMN 200 uM): 13.2 nM
- apparent KD of MS2 coat protein (input ligand: none): 13 nM

Sequence: GUGUAACUACACGGGCUCAACAUGAGGAUCACCCAUGUCAUACACGCAAGCUUUUUGCUUGUCUUAUCAGUCCGUGA [Rereerdiin] (puzzle: Sensor v3, turn-off variant 1)
- apparent KD of MS2 coat protein [1]: 13 nM
- apparent KD of MS2 coat protein [2]: 13.4 nM
- apparent KD of MS2 coat protein [3]: 11.1 nM

Sequence: GUGUACAGAGGAUAUACUUAUGGAGUUACGAAAGUAACUUCACAUGAGGAUCACCCAUGUAGAAGGCUGUACAC [Dot plot directed v10] (puzzle: Exclusion 2)
- apparent KD of MS2 coat protein [2]: 25.9 nM

Sequence: GUGUACAGAGGAUAUACUUGAAUCUAGCGAAGCUAGGUUCGACAUGAGGAUCACCCAUGUAGAAGGCUGUACAC [Dot plot directed A v2] (puzzle: Exclusion 2)
- apparent KD of MS2 coat protein [2]: 12.4 nM

Sequence: GUGUACAGAGGAUAUGCACGAGGAGUUACGAAAGUAACUUCACAUGAGGAUCACCCAUGUAGAAGGCUGUACAC [Dot plot directed v5] (puzzle: Exclusion 2)
- apparent KD of MS2 coat protein [2]: 13.9 nM

Sequence: GUGUCGUAAGGAUAUUUACCUGAGCCACUAGAGCGCUUGGAGAAGAAGGUACAUGAGGAUCACCCAUGUGGUGA [Eternabot (L2) Solution 61] (Eterna round: R97, puzzle: Exclusion 4)
- apparent KD of MS2 coat protein (input ligand: FMN 200 uM): 1430 nM
- apparent KD of MS2 coat protein (input ligand: none): 2570 nM

Sequence: GUGUGCAGAGGAUAUACAUAGUAAAAUAAAAUAUAAUAGGGACAUGAGGAUCACCCAUGUAGAAGGCUGAGUGU [Excluse me!! 23 - Jieux - Exclusion 2] (puzzle: Exclusion 2)
- apparent KD of MS2 coat protein [1]: 51.2 nM
- apparent KD of MS2 coat protein [2]: 41.7 nM
- apparent KD of MS2 coat protein [3]: 46.1 nM

Sequence: GUGUGCUGAGGAUAUACAGAGGAAGAUAAGAUAAGAUAAUCACAUGAGGAUCACCCAUGUAGAAGGCAGAGUGU [Excluse me!! 16 - Jieux - Exclusion 2] (puzzle: Exclusion 2)
- apparent KD of MS2 coat protein [2]: 27 nM

Sequence: GUGUGCUGAGGAUAUACAUAGGAAGAGAAGAGAAGAGAAGGACAUGAGGAUCACCCAUGUAGAAGGCAGAGUGU [Excluse me!! 12 - Jieux - Exclusion 2] (puzzle: Exclusion 2)
- apparent KD of MS2 coat protein [2]: 24.5 nM

Sequence: GUGUUGCGAGGAUAUAUAAGGAAAUGUUCUUAGGAUAUGGAACAUGAGGAUCACCCAUGUAGAAGGUGCAUAUC [JR_Ex2_Sub048] (Eterna round: R97, puzzle: Exclusion 2)
- apparent KD of MS2 coat protein (input ligand: FMN 200 uM): 48.1 nM
- apparent KD of MS2 coat protein (input ligand: none): 38.7 nM

Sequence: GUGUUUUAUGUAGGAUAUGCAUACUGUUAGUAUGCAGAAGGACAUGAGGAUCACCCAUGUAUAUUAUUAUUAUAUAUCAUACAU [MOD2 of Hoglahoo's Title] (Eterna round: R96, puzzle: Exclusion NG 1)
- apparent KD of MS2 coat protein (input ligand: FMN 200 uM): 98 nM
- apparent KD of MS2 coat protein [4]: 16 nM
- apparent KD of MS2 coat protein (input ligand: none): 18.9 nM

Sequence: GUUAAACAUGAGGAUCACCCAUGUAAGGAUAUGCUGCGGUCGAGAUGAAGUGACUGCAGCAGAAGGUACAAAUG [Mat - Mod of JL D60] (puzzle: Exclusion 1)
- apparent KD of MS2 coat protein [1]: 162 nM
- apparent KD of MS2 coat protein [2]: 127 nM
- apparent KD of MS2 coat protein [3]: 133 nM

Sequence: GUUAACGUAGGAUAUUAGUACAUGAACAUGAGGAUCACCCAUGUGAGGUAGGUCUUAGAAUAAGAAGGGCGAAGAA [EX5 #28] (Eterna round: R97, puzzle: Exclusion 5)
- apparent KD of MS2 coat protein (input ligand: FMN 200 uM): 124 nM
- apparent KD of MS2 coat protein (input ligand: none): 124 nM

Sequence: GUUAGUUAAGGAUAUACAGGGAGCCGCGGCGUCUCGCCGCAACAUGAGGAUCACCCAUGUAGAAGGUAGCCAUU [JL ViennaUCT Enbibi mod 1] (puzzle: Exclusion 2)
- apparent KD of MS2 coat protein [2]: 25.5 nM

Sequence: GUUAGUUAAGGAUAUACAGGGAGCUGCGGCGUCUCGCCGCAACAUGAGGAUCACCCAUGUAGAAGGUGACCUUU [JL ViennaUCT Enbibi mod 7] (puzzle: Exclusion 2)
- apparent KD of MS2 coat protein [2]: 435 nM

Sequence: GUUAUGUUAGGAUAUGCUUAUGGUGGGUGCUCAGACAUGAUGCAGAAGGGACAUGAGGAUCACCCAUGUACUGU [EX4 #19] (Eterna round: R97, puzzle: Exclusion 4)
- apparent KD of MS2 coat protein (input ligand: FMN 200 uM): 777 nM
- apparent KD of MS2 coat protein (input ligand: none): 991 nM

Sequence: GUUGUUGCGCAGGAUAUCCAGCGACUUGUCGAAGGAGAAGGGCGCACAUGAGGAUCACCCAUGUGCCUCUGUAA [EX6 B.20] (Eterna round: R97, puzzle: Exclusion 6)
- apparent KD of MS2 coat protein (input ligand: FMN 200 uM): 43 nM
- apparent KD of MS2 coat protein (input ligand: none): 18.6 nM

Sequence: GUUGUUUAUGUAGGAUAUGCCUGGCGUGCCUUUGCAGAAGGACAUGAGGAUCACCCAUGUAACAUGAGGCUCACCCAUGUCGCC [salish99_ExNG1_r04_108] (Eterna round: R96, puzzle: Exclusion NG 1)
- apparent KD of MS2 coat protein (input ligand: FMN 200 uM): 220 nM
- apparent KD of MS2 coat protein [4]: 72.6 nM
- apparent KD of MS2 coat protein (input ligand: none): 160 nM

Sequence: GUUUCACAUGAGGAUCACCCAUGUGAGGAUAUGGAUUCGCUGGCCGUAGCCAGUGGAUCCAGAAGGCGCGUGAU [JL-ex1-4.21] (Eterna round: R97, puzzle: Exclusion 1)
- apparent KD of MS2 coat protein (input ligand: FMN 200 uM): 60.5 nM
- apparent KD of MS2 coat protein (input ligand: none): 61.7 nM

Sequence: GUUUGACAUGAGGAUCACCCAUGUAAGGAUAUACGAGUAGAUACUAGAUAGUUAGUAUGUAGAAGGUACGUGUU [EX1 #64] (Eterna round: R97, puzzle: Exclusion 1)
- apparent KD of MS2 coat protein (input ligand: FMN 200 uM): 34.6 nM
- apparent KD of MS2 coat protein (input ligand: none): 43.5 nM

Sequence: GUUUGACAUGAGGAUCACCCAUGUAAGGAUAUACGAGUAGAUGAUAGAUAGAUAGUAAGUAGAAGGUACGUGUU [Translation] (Eterna round: R97, puzzle: Exclusion 1)
- apparent KD of MS2 coat protein (input ligand: FMN 200 uM): 70.6 nM
- apparent KD of MS2 coat protein (input ligand: none): 105 nM

Sequence: GUUUUCAGACGGAGAUCCUACAUGAGGAUCACCCAUGUCUCACUAGCUUUUUGCUCGUCUUAUCCUCCUCUGUUCUC [Elimod 28 - Jieux - Sensor, turn-off variant 1] (Eterna round: R97, puzzle: Sensor, turn-off variant 1)
- apparent KD of MS2 coat protein (input ligand: FMN 200 uM): 336 nM
- apparent KD of MS2 coat protein (input ligand: none): 460 nM

Sequence: GUUUUCAGACGGAGAUCCUACAUGAGGAUCACCCAUGUCUCUCUUGUUUUUUGCUCGUCUUUUCCUCCUCUGUUCUC [Elimod 32 - Jieux - Sensor, turn-off variant 1] (Eterna round: R97, puzzle: Sensor, turn-off variant 1)
- apparent KD of MS2 coat protein (input ligand: FMN 200 uM): 447 nM
- apparent KD of MS2 coat protein (input ligand: none): 515 nM

Sequence: UAAAAGCGGAAGGAUAUGUGUCUAAAGUCUGUAGCAGAAGGUCCGACAUGAGGAUCACCCAUGUGACCUGGUGC [Biatceis] (puzzle: Exclusion 6)
- apparent KD of MS2 coat protein [2]: 10.3 nM

Sequence: UAAAAGCUAGGAUAUACUGGCACACAACUCAUAAAUUCAAGACAUGAGGAUCACCCAUGUAGAAGGAGCAAAUA [EX2 A.3] (Eterna round: R97, puzzle: Exclusion 2)
- apparent KD of MS2 coat protein (input ligand: FMN 200 uM): 63.5 nM
- apparent KD of MS2 coat protein (input ligand: none): 23.6 nM

Sequence: UAAAAUAGUGUGAGGAUAUGCUGGUCCUUGGAUCAGCAGAAGGCACAUGAGGAUCACCCAUGUAGUUAAUUAUA [Mat - Exclusion 4 - JL Mod - D24] (puzzle: Brourd's mod of Exclusion 4)
- apparent KD of MS2 coat protein [2]: 36.8 nM

Sequence: UAAACAUGGAUAUAACAGUACAUGAGGAUCACCCAUGUUAAUAUGAUAGAUUAUAACAAGUUUUUUUGUCGUCUUAA [Tabletop] (Eterna round: R97, puzzle: Sensor, turn-off variant 1)
- apparent KD of MS2 coat protein (input ligand: FMN 200 uM): 85 nM
- apparent KD of MS2 coat protein (input ligand: none): 88 nM

Sequence: UAACAAAUUGUCAGGAUAUCAAUCCCGGCCCAGAUUGAGAAGGGACAUGAGGAUCACCCAUGUAUGAUUCUCAA [jl-ex4-4.51 ViennaUCT mod] (Eterna round: R97, puzzle: Brourd's mod of Exclusion 4)
- apparent KD of MS2 coat protein (input ligand: FMN 200 uM): 65.4 nM
- apparent KD of MS2 coat protein (input ligand: none): 31.9 nM

Sequence: UAACUGUGAGGAUAUUCGUAGUACACGGAGACGUGUAUUACGGAGAAGGCACAUGAGGAUCACCCAUGUUCCUU [Default title] (Eterna round: R97, puzzle: Exclusion 4)
- apparent KD of MS2 coat protein (input ligand: FMN 200 uM): 75.6 nM
- apparent KD of MS2 coat protein (input ligand: none): 17.4 nM

Sequence: UAACUUCUUGUAAGGAUAUCGGCGCGAAAGCGCAACGAGAAGGUACAUGAGGAUCACCCAUGUGAAAUAAGAAU [Mod of Zala 12 - Jieux - Brourd's Mod of Exclusion 4] (Eterna round: R97, puzzle: Brourd's mod of Exclusion 4)
- apparent KD of MS2 coat protein (input ligand: FMN 200 uM): 104 nM
- apparent KD of MS2 coat protein (input ligand: none): 28.3 nM

Sequence: UAAGAAGGUGUUAGGAUAUGCAGAGCAGGGCUAAGGCAGAAGGGACAUGAGGAUCACCCAUGUGCUACGGGUGC [Enrainbera] (puzzle: Brourd's mod of Exclusion 4)
- apparent KD of MS2 coat protein [1]: 51.2 nM
- apparent KD of MS2 coat protein [2]: 37.2 nM
- apparent KD of MS2 coat protein [3]: 35.9 nM
